Experimental data: patent US20160129100A1 (UVIC INDUSTRY PARTNERSHIPS, published 2016)

T1: Plasminogen-depleted human fibrinogen (human, UniProt P02671 20-629; P02675 31-491; P02679 27-437)
T1 construct: Bought protein, immobilized at 0.5 µg per well
T1 sequence 1: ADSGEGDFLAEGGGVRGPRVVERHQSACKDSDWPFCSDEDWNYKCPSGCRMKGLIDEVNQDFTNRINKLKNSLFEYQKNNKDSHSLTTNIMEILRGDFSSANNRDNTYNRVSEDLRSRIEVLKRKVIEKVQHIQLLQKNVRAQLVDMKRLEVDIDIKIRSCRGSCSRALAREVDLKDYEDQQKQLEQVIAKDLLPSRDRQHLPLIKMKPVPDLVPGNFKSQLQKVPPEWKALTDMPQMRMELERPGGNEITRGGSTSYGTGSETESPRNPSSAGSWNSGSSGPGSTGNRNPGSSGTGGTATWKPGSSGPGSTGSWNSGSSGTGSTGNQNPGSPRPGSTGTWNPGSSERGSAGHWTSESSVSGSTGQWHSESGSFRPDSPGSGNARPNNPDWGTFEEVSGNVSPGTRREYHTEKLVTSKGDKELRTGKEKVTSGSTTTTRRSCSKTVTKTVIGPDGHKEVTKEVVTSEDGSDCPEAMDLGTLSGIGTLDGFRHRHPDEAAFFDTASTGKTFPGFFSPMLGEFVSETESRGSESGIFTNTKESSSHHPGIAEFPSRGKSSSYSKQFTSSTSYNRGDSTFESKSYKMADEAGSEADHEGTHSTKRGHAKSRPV
T1 sequence 2: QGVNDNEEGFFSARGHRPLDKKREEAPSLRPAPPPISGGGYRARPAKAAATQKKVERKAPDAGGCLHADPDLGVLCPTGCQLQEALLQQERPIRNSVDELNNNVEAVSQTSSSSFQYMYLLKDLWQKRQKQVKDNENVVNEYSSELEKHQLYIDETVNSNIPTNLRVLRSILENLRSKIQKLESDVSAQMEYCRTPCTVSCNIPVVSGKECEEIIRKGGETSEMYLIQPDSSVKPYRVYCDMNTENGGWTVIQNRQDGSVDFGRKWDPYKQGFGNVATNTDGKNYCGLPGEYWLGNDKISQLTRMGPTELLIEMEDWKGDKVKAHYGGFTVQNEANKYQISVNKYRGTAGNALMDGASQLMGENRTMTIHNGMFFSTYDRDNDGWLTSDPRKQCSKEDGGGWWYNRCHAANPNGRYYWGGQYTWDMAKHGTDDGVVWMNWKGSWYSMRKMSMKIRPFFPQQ
T1 sequence 3: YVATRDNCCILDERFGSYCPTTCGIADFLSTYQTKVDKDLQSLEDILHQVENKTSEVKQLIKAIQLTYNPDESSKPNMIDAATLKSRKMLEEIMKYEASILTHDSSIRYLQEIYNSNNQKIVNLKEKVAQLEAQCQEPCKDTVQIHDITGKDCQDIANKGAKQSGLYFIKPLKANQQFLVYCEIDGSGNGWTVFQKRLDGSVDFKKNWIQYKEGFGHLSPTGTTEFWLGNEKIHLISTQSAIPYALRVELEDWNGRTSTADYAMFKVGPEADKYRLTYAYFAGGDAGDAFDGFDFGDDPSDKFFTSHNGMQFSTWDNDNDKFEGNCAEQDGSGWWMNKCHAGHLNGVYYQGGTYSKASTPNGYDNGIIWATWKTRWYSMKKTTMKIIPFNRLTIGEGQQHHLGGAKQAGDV

B1: Tp0751 peptide p3 (peptide)
peptide: HHHHHHTDPRSHGNAPPAPVGGAAQTHTQP
notes: One of 13 overlapping synthetic 24-mers spanning Tp0751 T46-P237; also called peptide 3
B2: scrambled version of Tp0751 peptide 10 (p10scr) (peptide)
peptide: HHHHHHTSRVKLTISFERSLVNRTRTARFI
notes: Scrambled synthetic peptide; also called p10 scrambled peptide; scrambled version of peptide 10
B3: Tp0751 peptide p6 (peptide)
peptide: HHHHHHQGALQHLLAGLWIQTEISPNSGDI
notes: One of 13 overlapping synthetic 24-mers spanning Tp0751 T46-P237; also called peptide 6
B4: Tp0751 peptide p8 (peptide)
peptide: HHHHHHFFDREHAEITFSRASVQEIFLVDS
notes: One of 13 overlapping synthetic 24-mers spanning Tp0751 T46-P237; also called negative control peptide
B5: Tp0751 peptide p10 (peptide)
peptide: HHHHHHRKTVSFLTRNTAISSIRRRLEVTF
notes: One of 13 overlapping synthetic 24-mers spanning Tp0751 T46-P237; also called peptide 10
B6: Tp0751 peptide p7 (peptide)
peptide: HHHHHHTEISPNSGDIHPLLFFDREHAEIT
notes: One of 13 overlapping synthetic 24-mers spanning Tp0751 T46-P237; also called peptide 7
B7: Tp0751 peptide p5 (peptide)
peptide: HHHHHHAMRIALWNRATHGEQGALQHLLAG
notes: One of 13 overlapping synthetic 24-mers spanning Tp0751 T46-P237; also called peptide 5

Tests used:
[1] = target: T2, fibronectin isolated from human plasma (human, UniProt P02751 32-2296); assay: 96-well plate binding assay, immobilized host protein 0.5 µg/well, His-tagged peptide, A600
T2 construct: Bought protein, immobilized at 0.5 µg per well
T2 sequence (P02751 other isoform, or with tags, fused parts or gaps limits assumed): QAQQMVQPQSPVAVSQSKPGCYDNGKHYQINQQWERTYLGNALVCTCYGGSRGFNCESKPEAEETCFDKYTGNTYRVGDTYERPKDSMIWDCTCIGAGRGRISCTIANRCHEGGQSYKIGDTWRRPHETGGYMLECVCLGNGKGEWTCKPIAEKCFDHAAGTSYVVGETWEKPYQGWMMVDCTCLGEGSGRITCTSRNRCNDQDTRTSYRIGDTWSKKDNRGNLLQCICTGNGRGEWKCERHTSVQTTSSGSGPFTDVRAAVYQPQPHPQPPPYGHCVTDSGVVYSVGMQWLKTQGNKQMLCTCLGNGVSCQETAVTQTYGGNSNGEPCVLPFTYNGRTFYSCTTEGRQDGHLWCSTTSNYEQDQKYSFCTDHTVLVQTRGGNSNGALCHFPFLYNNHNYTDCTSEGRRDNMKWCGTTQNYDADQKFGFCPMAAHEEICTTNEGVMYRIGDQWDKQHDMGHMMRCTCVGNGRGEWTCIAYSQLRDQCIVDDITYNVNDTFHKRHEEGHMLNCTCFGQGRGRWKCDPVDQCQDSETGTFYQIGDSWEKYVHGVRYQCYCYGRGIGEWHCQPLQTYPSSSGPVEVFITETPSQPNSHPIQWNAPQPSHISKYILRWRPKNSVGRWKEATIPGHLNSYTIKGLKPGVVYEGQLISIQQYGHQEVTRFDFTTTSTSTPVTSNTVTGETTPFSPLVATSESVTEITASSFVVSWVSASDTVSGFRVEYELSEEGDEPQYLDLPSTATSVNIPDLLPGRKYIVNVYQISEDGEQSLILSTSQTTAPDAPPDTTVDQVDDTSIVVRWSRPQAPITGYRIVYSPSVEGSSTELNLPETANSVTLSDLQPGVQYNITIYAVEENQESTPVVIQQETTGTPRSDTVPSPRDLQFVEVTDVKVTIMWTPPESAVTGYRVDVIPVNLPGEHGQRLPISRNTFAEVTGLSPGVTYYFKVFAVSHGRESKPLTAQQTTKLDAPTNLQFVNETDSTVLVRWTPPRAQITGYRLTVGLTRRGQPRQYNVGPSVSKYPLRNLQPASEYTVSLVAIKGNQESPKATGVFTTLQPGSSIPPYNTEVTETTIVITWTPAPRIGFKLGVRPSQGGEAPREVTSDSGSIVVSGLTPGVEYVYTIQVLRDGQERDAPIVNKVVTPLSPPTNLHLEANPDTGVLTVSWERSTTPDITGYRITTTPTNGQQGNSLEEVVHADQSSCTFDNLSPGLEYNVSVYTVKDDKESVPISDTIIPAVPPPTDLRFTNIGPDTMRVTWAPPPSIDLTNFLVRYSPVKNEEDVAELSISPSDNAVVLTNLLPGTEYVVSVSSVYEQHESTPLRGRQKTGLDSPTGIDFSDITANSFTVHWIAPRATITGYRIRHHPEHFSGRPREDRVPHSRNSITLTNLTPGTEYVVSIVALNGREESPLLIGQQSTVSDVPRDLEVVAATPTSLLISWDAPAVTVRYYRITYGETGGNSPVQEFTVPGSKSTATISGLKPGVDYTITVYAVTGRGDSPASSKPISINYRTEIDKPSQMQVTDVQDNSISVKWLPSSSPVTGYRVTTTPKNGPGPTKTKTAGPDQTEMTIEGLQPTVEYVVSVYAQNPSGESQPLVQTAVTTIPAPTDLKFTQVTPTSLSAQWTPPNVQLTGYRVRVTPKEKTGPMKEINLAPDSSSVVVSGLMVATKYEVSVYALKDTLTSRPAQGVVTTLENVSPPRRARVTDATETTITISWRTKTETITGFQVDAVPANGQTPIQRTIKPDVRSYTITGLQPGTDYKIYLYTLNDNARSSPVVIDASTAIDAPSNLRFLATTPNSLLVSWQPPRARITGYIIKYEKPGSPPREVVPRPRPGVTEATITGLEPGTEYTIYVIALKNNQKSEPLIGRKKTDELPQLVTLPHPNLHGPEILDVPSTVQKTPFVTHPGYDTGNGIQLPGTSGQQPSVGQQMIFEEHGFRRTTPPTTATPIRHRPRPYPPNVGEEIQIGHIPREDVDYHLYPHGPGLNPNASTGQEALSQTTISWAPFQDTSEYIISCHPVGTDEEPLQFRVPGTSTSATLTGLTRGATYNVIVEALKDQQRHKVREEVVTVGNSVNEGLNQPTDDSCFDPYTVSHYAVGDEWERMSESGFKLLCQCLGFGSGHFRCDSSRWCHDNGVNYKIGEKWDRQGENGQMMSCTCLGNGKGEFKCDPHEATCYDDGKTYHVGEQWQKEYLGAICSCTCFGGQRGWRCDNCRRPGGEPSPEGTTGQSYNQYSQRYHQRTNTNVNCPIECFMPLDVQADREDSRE

Human collagen type I = target: T3, Human collagen type I (human, UniProt P02452 162-1218; P08123 80-1119); assay: as above
T3 construct: Bought protein, immobilized at 0.5 µg per well; also called collagen I
T3 sequence (P02452 162-1218, chain 1 of 2): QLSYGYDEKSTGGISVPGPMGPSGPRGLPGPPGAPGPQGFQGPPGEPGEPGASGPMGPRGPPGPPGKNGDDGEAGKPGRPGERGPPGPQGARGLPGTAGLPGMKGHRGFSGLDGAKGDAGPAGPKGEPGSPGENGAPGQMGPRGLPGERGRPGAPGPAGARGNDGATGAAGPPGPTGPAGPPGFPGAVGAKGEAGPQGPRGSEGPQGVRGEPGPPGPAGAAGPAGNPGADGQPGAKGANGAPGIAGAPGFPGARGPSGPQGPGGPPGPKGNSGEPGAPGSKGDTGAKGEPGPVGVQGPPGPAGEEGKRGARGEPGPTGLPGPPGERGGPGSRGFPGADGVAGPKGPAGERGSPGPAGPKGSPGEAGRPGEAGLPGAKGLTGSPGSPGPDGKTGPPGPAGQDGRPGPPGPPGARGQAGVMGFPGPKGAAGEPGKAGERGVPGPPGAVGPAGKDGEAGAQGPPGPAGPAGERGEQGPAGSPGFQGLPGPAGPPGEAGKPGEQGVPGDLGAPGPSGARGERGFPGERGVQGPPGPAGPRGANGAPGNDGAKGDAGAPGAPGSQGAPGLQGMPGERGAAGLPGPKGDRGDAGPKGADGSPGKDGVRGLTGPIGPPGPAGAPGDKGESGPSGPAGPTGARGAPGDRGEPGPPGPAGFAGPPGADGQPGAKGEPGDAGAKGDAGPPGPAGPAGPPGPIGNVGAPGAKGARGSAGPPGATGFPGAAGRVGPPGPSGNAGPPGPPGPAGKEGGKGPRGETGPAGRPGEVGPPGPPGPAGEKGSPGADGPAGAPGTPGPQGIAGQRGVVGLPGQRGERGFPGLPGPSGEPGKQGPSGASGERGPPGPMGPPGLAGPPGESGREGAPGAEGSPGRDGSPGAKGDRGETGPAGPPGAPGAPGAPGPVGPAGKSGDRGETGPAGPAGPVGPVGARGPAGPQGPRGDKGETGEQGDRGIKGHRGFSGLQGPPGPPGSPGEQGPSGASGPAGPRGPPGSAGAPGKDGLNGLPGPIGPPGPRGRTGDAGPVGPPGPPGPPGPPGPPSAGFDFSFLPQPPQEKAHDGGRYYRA
T3 sequence (P08123 80-1119, chain 2 of 2): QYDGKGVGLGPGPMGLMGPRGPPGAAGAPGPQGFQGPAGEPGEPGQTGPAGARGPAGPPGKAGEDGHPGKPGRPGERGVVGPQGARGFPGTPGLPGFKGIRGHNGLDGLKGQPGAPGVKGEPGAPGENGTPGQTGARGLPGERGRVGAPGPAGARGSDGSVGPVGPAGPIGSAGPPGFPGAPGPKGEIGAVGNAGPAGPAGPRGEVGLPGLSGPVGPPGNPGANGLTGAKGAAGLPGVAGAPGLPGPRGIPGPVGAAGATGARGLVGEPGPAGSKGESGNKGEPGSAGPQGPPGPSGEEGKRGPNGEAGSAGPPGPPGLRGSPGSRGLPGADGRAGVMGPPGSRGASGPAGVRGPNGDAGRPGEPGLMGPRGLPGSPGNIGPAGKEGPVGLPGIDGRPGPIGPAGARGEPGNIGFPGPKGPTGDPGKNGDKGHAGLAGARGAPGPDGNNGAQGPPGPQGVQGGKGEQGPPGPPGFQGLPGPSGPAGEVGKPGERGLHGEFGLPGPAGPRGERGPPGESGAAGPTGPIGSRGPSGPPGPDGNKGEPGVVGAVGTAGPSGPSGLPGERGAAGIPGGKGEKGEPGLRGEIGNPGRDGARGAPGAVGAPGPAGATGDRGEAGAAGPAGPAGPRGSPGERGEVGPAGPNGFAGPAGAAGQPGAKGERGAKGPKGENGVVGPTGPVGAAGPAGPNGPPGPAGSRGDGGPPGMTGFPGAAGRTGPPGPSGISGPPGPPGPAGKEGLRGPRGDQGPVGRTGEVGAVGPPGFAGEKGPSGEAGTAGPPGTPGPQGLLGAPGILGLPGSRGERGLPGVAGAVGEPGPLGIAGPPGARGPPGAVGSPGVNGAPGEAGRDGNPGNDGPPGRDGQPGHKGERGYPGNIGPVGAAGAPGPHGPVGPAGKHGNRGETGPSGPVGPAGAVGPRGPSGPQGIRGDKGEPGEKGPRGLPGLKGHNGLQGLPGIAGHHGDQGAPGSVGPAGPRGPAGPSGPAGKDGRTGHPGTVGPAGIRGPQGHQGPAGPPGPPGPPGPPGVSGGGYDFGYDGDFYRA

[2] = target: T1, Plasminogen-depleted human fibrinogen; assay: as above
[3] = target: T1, Plasminogen-depleted human fibrinogen; assay: 96-well plate binding assay, immobilized host protein, His-tagged peptide, A600
[4] = target: T1, Plasminogen-depleted human fibrinogen; assay: 96-well plate binding assay, immobilized host protein 0.5 µg/well, peptide 2.0 µg/well, A600

Row | Binder | binding result [1] | binding result (Human collagen type I) | binding result [2] | binding result [3] | binding result [4]
1 | B1 | no binding (tested: 2.0 µg per well) | no binding (tested: 2.0 µg per well) | no binding (tested: 2.0 µg per well) |  | 
2 | B2 |  |  |  | binds | 
3 | B3 |  |  |  |  | binds
4 | B4 | no binding (tested: 2.0 µg per well) | no binding (tested: 2.0 µg per well) | no binding (tested: 2.0 µg per well) |  | 
5 | HHHHHHSIRRRLEVTFESHEVIHVRAVEDV (also called peptide 11) [Tp0751 peptide p11] |  |  |  |  | binds
6 | HHHHHHMRLTPGWHTANQIRPQAQGVATAA (Scrambled synthetic peptide) [scrambled version of Tp0751 peptide 4 (p4scr)] | no binding (tested: 2.0 µg per well) | no binding (tested: 2.0 µg per well) | no binding (tested: 2.0 µg per well) |  | 
7 | B5 |  |  |  | binds | 
8 | B6 | no binding (tested: 2.0 µg per well) | no binding (tested: 2.0 µg per well) | no binding (tested: 2.0 µg per well) |  | 
9 | B7 | no binding (tested: 2.0 µg per well) | no binding (tested: 2.0 µg per well) | no binding (tested: 2.0 µg per well) |  | 
10 | HHHHHHTSNDWGQSLAILHEPQLGILQAGI (Scrambled synthetic peptide) [scrambled version of Tp0751 peptide 6 (p6scr)] | no binding (tested: 2.0 µg per well) | no binding (tested: 2.0 µg per well) | no binding (tested: 2.0 µg per well) |  | 
